Numbered stars: 1 amine (or outer) side, 2 acyl side, 3 side chain; on linkers, the order of the positions; unused ones are H or OH. Square brackets hold non-standard residues; d marks the D form. Ends that are not written are not given here. X3 = Pro(4S-(4-(4-aminophenyl)-1,2,3-triazol-1-yl)), O=C([C@@H]1C[C@H](n2cc(-c3ccc(N[*:3])cc3)nn2)CN1[*:1])[*:2]; Cit = NC(=O)NCCC[C@H](N)C(=O)O

This test addresses Full-length HIV-1 YU2 gp120 (HIV-1 YU2, UniProt P35961 32-498). Put plainly: ELISA. (In general: In an ELISA, binding on a coated surface is turned into a signal by an enzyme label.)

One may read the IC50 as the concentration that gives 50% inhibition. As to [Cit]NNI[X3]WS-NH2 [UM25 peptide triazole], the IC50 is 18 µM.

(Values after publication PMC3800186 (Biochemistry, 2013).)
